Consider one molecule from publication PMC12931730 (2025).

In experiment [1] the target is T1, lysin motif (LysM) peptidoglycan-binding domain-containing protein (LPDP), recombinant (Staphylococcus lentus, UniProt A0A8I0UA09). Description: MST.
The target in experiment [2] is T1, lysin motif (LysM) …. Description: MST; in the presence of tubuloside B.

B1: PDZ and LIM domain 3 (PDLIM3) (natural protein)
chain: MPQNVVLPGPAPWGFRLSGGIDFNQPLVITRITPGSKAAAANLCPGDVILAIDGFGTESMTHADAQDRIKAASYQLCLKIDRAETRLWSPQVSEDGKAHPFKINLEAEPQEFKPIGTAHNRRAQPFVAAANIDDKRQVVSASYNSPIGLYSTSNIQDALHGQLRGLIPGSLQNEPTASVPPQSDVYRMLHDNRDDPAAPRQSGSFRVLQDLVNDGPDDRPAGTRSVRAPVTKVHGGAGSAQRMPLCDKCGSGIVGAVVKARDKYRHPECFVCADCNLNLKQKGYFFVEGELYCETHARARTRPPEGYDTVTLYPKA
modifications: fluorescently labeled with the Monolith His-Tag Labeling Kit (in the microscale thermophoresis only)
Consider B1, for which the dissociation constant Kd – broadly, the constant that tells how readily two partners part at equilibrium – in experiment [1] worked out at 930 nM; in experiment [2], 4.55 µM.
